18 variants from the RNAGym collection of RNA variant scans (doi:10.1021/acssynbio.7b00057) can be followed below.

The labels stand for the following.
B1: Pistol ribozyme (parent)
chain: GGGUCGUUGUUCCAUAAUCGCGUGGAUAUGGCACGCAAGUUUCUACCGGGCACCGUAAAUGUCCGACUGGAGCCGUUCGGGCGGCUAUAAACAGACCUCAGGCCCGAAGCGUGGCGGCACCUGCCGCCGGUGGUAAAAAAGAUCGGAAGAGCACACGUCU

Variants of B1 are the subject of the series. Briefly: aptazyme ON/OFF ratio, guanine; higher = stronger switching; co-transcriptional cleavage with and without guanine.
For GGGUCGGAGUCUUAUAAUCGCGUGGAUAUGGCACGCAAGUUUCUACCGGGCACCGUAAAUGUCCGACUGGAGCCGUUCGGGCGGCUAUAAACAGACCUCAGGCCCGAAGCGUGGCGGCACCUGCCGCCGGUGGUAAAAAAGAUCGGAAGAGCACACGUCU [U7G U8A U11C C12U C13U], the “aptazyme ON/OFF ratio” value amounted to 1.47.
GGGUCGUAACACCAUAAUCGCGUGGAUAUGGCACGCAAGUUUCUACCGGGCACCGUAAAUGUCCGACUGGAGCCGUUCGGGCGGCUAUAAACAGACCUCAGGCCCGAAGCGUGGCGGCACCUGCCGCCGGUGGUAAAAAAGAUCGGAAGAGCACACGUCU [U8A G9A U10C U11A]: the “aptazyme ON/OFF ratio” value came to 1.33.
In the case of GGGUCGCUCGAAAAUAAUCGCGUGGAUAUGGCACGCAAGUUUCUACCGGGCACCGUAAAUGUCCGACUGGAGCCGUUCGGGCGGCUAUAAACAGACCUCAGGCCCGAAGCGUGGCGGCACCUGCCGCCGGUGGUAAAAAAGAUCGGAAGAGCACACGUCU [U7C G9C U10G U11A C12A C13A] it was 1.31.
In the case of GGGUCGGCACAGGAUAAUCGCGUGGAUAUGGCACGCAAGUUUCUACCGGGCACCGUAAAUGUCCGACUGGAGCCGUUCGGGCGGCUAUAAACAGACCUCAGGCCCGAAGCGUGGCGGCACCUGCCGCCGGUGGUAAAAAAGAUCGGAAGAGCACACGUCU [U7G U8C G9A U10C U11A C12G C13G] it was 1.21; in that of GGGUCGCGGGAUGAUAAUCGCGUGGAUAUGGCACGCAAGUUUCUACCGGGCACCGUAAAUGUCCGACUGGAGCCGUUCGGGCGGCUAUAAACAGACCUCAGGCCCGAAGCGUGGCGGCACCUGCCGCCGGUGGUAAAAAAGAUCGGAAGAGCACACGUCU [U7C U8G U10G U11A C12U C13G], 1.11; in that of GGGUCGAUUCCGGAUAAUCGCGUGGAUAUGGCACGCAAGUUUCUACCGGGCACCGUAAAUGUCCGACUGGAGCCGUUCGGGCGGCUAUAAACAGACCUCAGGCCCGAAGCGUGGCGGCACCUGCCGCCGGUGGUAAAAAAGAUCGGAAGAGCACACGUCU [U7A G9U U10C U11C C12G C13G], 1.04.
For GGGUCGACUCUAUAUAAUCGCGUGGAUAUGGCACGCAAGUUUCUACCGGGCACCGUAAAUGUCCGACUGGAGCCGUUCGGGCGGCUAUAAACAGACCUCAGGCCCGAAGCGUGGCGGCACCUGCCGCCGGUGGUAAAAAAGAUCGGAAGAGCACACGUCU [U7A U8C G9U U10C C12A C13U], the “aptazyme ON/OFF ratio” value worked out at 1.26.
Take GGGUCGCAAGUCUAUAAUCGCGUGGAUAUGGCACGCAAGUUUCUACCGGGCACCGUAAAUGUCCGACUGGAGCCGUUCGGGCGGCUAUAAACAGACCUCAGGCCCGAAGCGUGGCGGCACCUGCCGCCGGUGGUAAAAAAGAUCGGAAGAGCACACGUCU [U7C U8A G9A U10G C13U]: the “aptazyme ON/OFF ratio” value was found to be 1.39.
Take GGGUCGGACGGGAAUAAUCGCGUGGAUAUGGCACGCAAGUUUCUACCGGGCACCGUAAAUGUCCGACUGGAGCCGUUCGGGCGGCUAUAAACAGACCUCAGGCCCGAAGCGUGGCGGCACCUGCCGCCGGUGGUAAAAAAGAUCGGAAGAGCACACGUCU [U7G U8A G9C U10G U11G C12G C13A]: the “aptazyme ON/OFF ratio” value stood at 1.05.
As to GGGUCGAGUCGGAAUAAUCGCGUGGAUAUGGCACGCAAGUUUCUACCGGGCACCGUAAAUGUCCGACUGGAGCCGUUCGGGCGGCUAUAAACAGACCUCAGGCCCGAAGCGUGGCGGCACCUGCCGCCGGUGGUAAAAAAGAUCGGAAGAGCACACGUCU [U7A U8G G9U U10C U11G C12G C13A], the “aptazyme ON/OFF ratio” value is 1.36.
As for GGGUCGGAGCGGUAUAAUCGCGUGGAUAUGGCACGCAAGUUUCUACCGGGCACCGUAAAUGUCCGACUGGAGCCGUUCGGGCGGCUAUAAACAGACCUCAGGCCCGAAGCGUGGCGGCACCUGCCGCCGGUGGUAAAAAAGAUCGGAAGAGCACACGUCU [U7G U8A U10C U11G C12G C13U], the “aptazyme ON/OFF ratio” value was found to be 1.05.
As to GGGUCGGUGCGUCAUAAUCGCGUGGAUAUGGCACGCAAGUUUCUACCGGGCACCGUAAAUGUCCGACUGGAGCCGUUCGGGCGGCUAUAAACAGACCUCAGGCCCGAAGCGUGGCGGCACCUGCCGCCGGUGGUAAAAAAGAUCGGAAGAGCACACGUCU [U7G U10C U11G C12U], the “aptazyme ON/OFF ratio” value worked out at 1.2.
Take GGGUCGCUCGCUAAUAAUCGCGUGGAUAUGGCACGCAAGUUUCUACCGGGCACCGUAAAUGUCCGACUGGAGCCGUUCGGGCGGCUAUAAACAGACCUCAGGCCCGAAGCGUGGCGGCACCUGCCGCCGGUGGUAAAAAAGAUCGGAAGAGCACACGUCU [U7C G9C U10G U11C C12U C13A]: the “aptazyme ON/OFF ratio” value was found to be 1.12.
GGGUCGCAACGGGAUAAUCGCGUGGAUAUGGCACGCAAGUUUCUACCGGGCACCGUAAAUGUCCGACUGGAGCCGUUCGGGCGGCUAUAAACAGACCUCAGGCCCGAAGCGUGGCGGCACCUGCCGCCGGUGGUAAAAAAGAUCGGAAGAGCACACGUCU [U7C U8A G9A U10C U11G C12G C13G]: the “aptazyme ON/OFF ratio” value is 1.12.
In the case of GGGUCGUGUAUGAAUAAUCGCGUGGAUAUGGCACGCAAGUUUCUACCGGGCACCGUAAAUGUCCGACUGGAGCCGUUCGGGCGGCUAUAAACAGACCUCAGGCCCGAAGCGUGGCGGCACCUGCCGCCGGUGGUAAAAAAGAUCGGAAGAGCACACGUCU [U8G G9U U10A C12G C13A] it was 1.2; in that of GGGUCGAGUACCUAUAAUCGCGUGGAUAUGGCACGCAAGUUUCUACCGGGCACCGUAAAUGUCCGACUGGAGCCGUUCGGGCGGCUAUAAACAGACCUCAGGCCCGAAGCGUGGCGGCACCUGCCGCCGGUGGUAAAAAAGAUCGGAAGAGCACACGUCU [U7A U8G G9U U10A U11C C13U], 0.998; in that of GGGUCGCUGUGUAAUAAUCGCGUGGAUAUGGCACGCAAGUUUCUACCGGGCACCGUAAAUGUCCGACUGGAGCCGUUCGGGCGGCUAUAAACAGACCUCAGGCCCGAAGCGUGGCGGCACCUGCCGCCGGUGGUAAAAAAGAUCGGAAGAGCACACGUCU [U7C U11G C12U C13A], 1.13.
For GGGUCGGCCGAUGAUAAUCGCGUGGAUAUGGCACGCAAGUUUCUACCGGGCACCGUAAAUGUCCGACUGGAGCCGUUCGGGCGGCUAUAAACAGACCUCAGGCCCGAAGCGUGGCGGCACCUGCCGCCGGUGGUAAAAAAGAUCGGAAGAGCACACGUCU [U7G U8C G9C U10G U11A C12U C13G], the “aptazyme ON/OFF ratio” value was determined as 1.04.
